Source: patent US20230167458A1, “FORSKOLIN-INDUCIBLE PROMOTERS AND HYPOXIA-INDUCIBLE PROMOTERS” (ASKLEPIOS BIOPHARMACEUTICAL, INC., priority 2020, published 2023)
“Also recorded” adds a separate entry of the source.

What was measured:
[1] = system: HEK293-F; assay: Luciferase time course under hypoxia, transiently transfected HEK293-F; type: cell-based, human; settings: 5% oxygen, 3, 5 and 24 hrs
Description: The constructs were initially used to drive luciferase expression in HEK293-F and HEK293-T in hypoxia.
40 ml of cells were grown in a 250 ml vented Erlenmeyer flask (Sigma-Aldrich CLS431144) at 37° C., 20% O2, 8% CO2 with agitation at 100 rpm. Cells were seeded as described in the manufacturer's instructions (300,000 cells/ml). HEK293-F were obtained from Thermofisher, R79007.
One day before transfection, the cells were counted using a haemocytometer and split to 500,000 cells/ml.
On the day of transfection, the cells are seeded to 1,000,000 cells/ml in 500 μl of appropriate medium (Freestyle 293 expression medium, 12338002) in a 24 well plate. […] of DNA per well was then added to 10 μl of OptiMem medium (Thermofisher; 11058021) and incubated for 5 minutes at room temperature.
Concurrently, 0.625 μl of Max reagent (Thermofisher, 16447100) was made up to 10 μl by addition of OptiMem and incubated for 5 minutes at room temperature. After this incubation, both mixes were added to the same tube and incubated at room temperature for 25-30 minutes. […]
After transfection the cells were incubated for 24 hrs in normoxia conditions (20% oxygen) before being switched to a gas mix of 5% oxygen, 10% carbon dioxide and 85% nitrogen (hypoxia). […] Induction of the promoters was assessed by using luciferase activity after 3, 5 and 24 hrs in hypoxia.
Luciferase activity was measured using LARII (Dual Luciferase Reporter 1000 assay system, Promega, E1980).
Media was removed from the cells at the respective time point (0, 3, 5, 24 hrs after induction). […] 10 μl of supernatant was pipetted into white 96-well plate and luminescence measured by addition of 50 μl of LARII substrate.
β-galactosidase activity was measured as per manufacturer's instructions (Mammalian βGalactosidase Assay Kit, 75707/75710, Thermo Scientific) using 25 μl of lysate. […] The mixture was incubated at 37° C. for 30 min and absorbance measured at 405 nm.
Luciferase readouts were normalised to β-galactosidase to produce normalised relative luminometer units (RLUs).

[2] = system: Huh7 human liver cell line; assay: Luciferase expression from forskolin-inducible promoters, transient transfection of PM-RQ plasmid in Huh7; type: cell-based; design: luciferase activity following induction / fold induction of promoter (luciferase activity): dose or concentration left out as unconfirmed
Description: Luciferase readouts were normalised to β-galactosidase to produce normalised relative luminometer units (RLUs). β-galactosidase containing pcDNA6 plasmid was used as internal control for transfection efficiency (Thermofisher, V22020). β-galactosidase activity was measured as per manufacturer's instructions (Mammalian βGalactosidase Assay Kit, 75707/75710, Thermo Scientific) using 25 μl of lysate. 25 μl of lysate was transferred into a microplate well and mixed with 25 μl of β-galactosidase Assay Reagent, equilibrated to room temperature. The mixture was incubated at 37° C. for 30 min and absorbance measured at 405 nm.
The forskolin-inducible promoters were initially used to drive expression of luciferase in the Huh7 human liver cell line and the C2C12 […]. The promoter constructs were used to drive expression of luciferase in the PM-RQ plasmid. The tested promoters were synthesised directly upstream of the ATG of PM-RQ plasmid.
• Huh7 cells which are a human liver cell line • DPBS: without CaCl2, without MgCl2 (Gibco, 14190-094) • DMEM (Sigma, D6546) • FBS (Sigma, F9665) • Pen-Strep (Sigma, P4333) • Promega Fugene-HD (E2311) • Forskolin (Sigma, F6886) • NKH477 (Sigma, N3290) • LARII (Dual Luciferase Reporter 1000 assay system, Promega, E1980) • 48 well plates flat bottom (353230, Corning) • Trypsin-EDTA (25200-056, Gibco) • T25 & T75 flask (353108, 353136, Corning) • 15 ml Falcon tubes (430791, Corning) • Stripettes 5 ml, 10 ml and 25 ml (4101,4051,4251, Corning)
Cells were seeded onto a 48 well plate at a density of 25,000 cells/300 μl
• On the day of transfection, DNA to be transfected was diluted to a 100 ng/μl stock solution. DNA to be transfected was the RTV-017, RTV-019 or CMV-IE promoter driving luciferase in the PM-RQ plasmid. • Per 48 well transfection, 45 ng of DNA was mixed with 4.1 μl of Optimem medium. • 0.5 μl of […] was mixed with 4 μl of Optimem medium. • These 2 solutions were mixed and incubated at room temperature for 15 minutes. • The final solution was then added to the well drop wise. • 3 hrs after transfection the inducer was added to the appropriate wells at the indicated concentration. Inducer was forskolin at […].
• 24 hrs after induction, the luciferase activity was measured as described below.
• Luciferase activity was measured using LARII (Dual Luciferase Reporter 1000 assay system, Promega, E1980) • 24 hours after induction, the media was removed from the cells • The cells were washed once in 300 μl of DPBS. • Cells were lysed using 100 μl of passive lysis buffer and incubated with rocking for 15 minutes. • The cell debris was pelleted by centrifugation of the plate at max speed in a benchtop centrifuge for 1 min • For luciferase, 10 μl sample was transferred into white 96-well plate and luminescence measured by injection of 50 μl of LARII substrate
RTV-017 and RTV-019 were transiently transfected into the human liver cell line Huh7 (FIG. 2). RTV-019 was transiently transfected into the […] C2C12 (FIG. 3). The activity of the promoters was assessed using luciferase activity. The luciferase activity was measured with and without the presence of […] forskolin.

[3] = system: Huh7 human liver cell line; assay: Luciferase expression from promoters in pAAV vector (with ITRs) in Huh7, forskolin or NKH477 induction; design: fold induction with forskolin: dose or concentration left out as unconfirmed
Description: The forskolin-inducible promoters RTV-017, RTV-019 and FORCYB1 were then used to drive expression of luciferase in a pAAV vector in the Huh7 human liver cell line. […] This experiment was performed to investigate the effect of the Inverted Terminal Repeats (ITRs) on the activity of the promoters.
The cells were seeded, transfected and induced as described above. Luciferase expression was measured as described above. In this experiment, the cells were induced by using 20 pM forskolin or 7.2 pM of the water soluble derivative NKH477.

Row | Molecule | effect of switch to hypoxia on luciferase activity [1] | luciferase activity without induction (background) ([2]; Huh7, before addition of forskolin) | luciferase activity following induction ([2]; Huh7, forskolin) | fold induction of promoter (luciferase activity) ([2]; Huh7 liver cells, PM-RQ plasmid, forskolin, 24 hrs after induction) | fold induction with forskolin ([3]; Huh7) | luciferase activity without induction (background) ([3]; Huh7) | fold induction with NKH477 ([3]; Huh7, 7.2 pM NKH477) | luciferase activity following induction ([3]; Huh7, or 7.2 pM NKH477)
1 | CMV minimal promoter: CMV minimal promoter, SEQ ID NO: 28; named as control in FIG. 13 legend (nucleic acid) DNA: AGGTCTATATAAGCAGAGCTCGTTTAGTGAACCGTCAGATCGCCTAGATACGCCATCCACGCTGTTTTGACCTCCATAGAAGATCGCCACC | does not change | – | – | – | – | – | – | –
2 | RTV-017: synthetic forskolin-inducible promoter, SEQ ID NO: 43; 8× AP1(1) TFBS and CMV-MP minimal promoter (nucleic acid, Synp-RTV-017, 8× AP1(1) TFBS and CMV-MP minimal promoter) DNA: TGAGTCAGATGATGCGTAGCTAGTAGTTGAGTCAGATGATGCGTAGCTAGTAGTTGAGTCAGATGATGCGTAGCTAGTAGTTGAGTCAGATGATGCGTAGCTAGTAGTTGAGTCAGATGATGCGTAGCTAGTAGTTGAGTCAGATGATGCGTAGCTAGTAGTTGAGTCAGATGATGCGTAGCTAGTAGTTGAGTCAGTAGTCGTATGCTGATGCGCAGTTAGCGTAGCTGAGGTACCGTCGACGATATCGGATCCAGGTCTATATAAGCAGAGCTCGTTTAGTGAACCGTCAGATCGCCTAGATACGCCATCCACGCTGTTTTGACCTCCATAGAAGATCGCCACC | – | low background activity | high activity; also recorded: much higher activity | 13 fold | 44 fold | low background activity | 23 fold | high activity
